Experiments:
AncSZ = test: phosphorylation enrichment, bacterial display (enrichment ratio); higher = better substrate or ligand; peptides without Tyr show the background
EPHB1 = EPHB1 (UniProt P54762); test: as above
EPHB2 = EPHB2 (UniProt P29323); test: as above
FGFR1 = FGFR1 (UniProt P11362); test: as above
FGFR3 = FGFR3 (UniProt P22607); test: as above
Fer (mouse) = test: as above
Fes = Fes (UniProt P07332); test: as above
Fyn = Fyn (UniProt P06241); test: as above
Hck = Hck (UniProt P08631); test: as above
Jak2 = Jak2 (UniProt O60674); test: as above
MERTK = MERTK (UniProt Q12866); test: as above
c-Abl (mouse) = test: as above
c-Src = test: as above
Grb2 SH2 = Grb2 SH2 (UniProt P62993); test: SH2 binding enrichment of the phosphorylated peptide, bacterial display (enrichment ratio); higher = better substrate or ligand; peptides without Tyr show the background
SHP2-C SH2 = test: as above
c-Src SH2 = test: as above
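Throughout, for SH2 binding enrichment of the phosphorylated peptide, bacterial display: peptide library displayed on the E. coli surface as eCPX fusions, selected cells deep-sequenced, score is each peptide's frequency after selection divided by its frequency in the input.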
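Throughout, for phosphorylation enrichment, bacterial display: 11-residue human phosphosite peptides and single-mutation variants displayed on the E. coli surface, counted by deep sequencing, each peptide's frequency after selection divided by its frequency in the unselected input library; frequency after pTyr selection over input frequency; kinase dosed for 20-30% of maximal phosphorylation in three min.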

Chain of EPHB2 (P29323 whole entry, looked up): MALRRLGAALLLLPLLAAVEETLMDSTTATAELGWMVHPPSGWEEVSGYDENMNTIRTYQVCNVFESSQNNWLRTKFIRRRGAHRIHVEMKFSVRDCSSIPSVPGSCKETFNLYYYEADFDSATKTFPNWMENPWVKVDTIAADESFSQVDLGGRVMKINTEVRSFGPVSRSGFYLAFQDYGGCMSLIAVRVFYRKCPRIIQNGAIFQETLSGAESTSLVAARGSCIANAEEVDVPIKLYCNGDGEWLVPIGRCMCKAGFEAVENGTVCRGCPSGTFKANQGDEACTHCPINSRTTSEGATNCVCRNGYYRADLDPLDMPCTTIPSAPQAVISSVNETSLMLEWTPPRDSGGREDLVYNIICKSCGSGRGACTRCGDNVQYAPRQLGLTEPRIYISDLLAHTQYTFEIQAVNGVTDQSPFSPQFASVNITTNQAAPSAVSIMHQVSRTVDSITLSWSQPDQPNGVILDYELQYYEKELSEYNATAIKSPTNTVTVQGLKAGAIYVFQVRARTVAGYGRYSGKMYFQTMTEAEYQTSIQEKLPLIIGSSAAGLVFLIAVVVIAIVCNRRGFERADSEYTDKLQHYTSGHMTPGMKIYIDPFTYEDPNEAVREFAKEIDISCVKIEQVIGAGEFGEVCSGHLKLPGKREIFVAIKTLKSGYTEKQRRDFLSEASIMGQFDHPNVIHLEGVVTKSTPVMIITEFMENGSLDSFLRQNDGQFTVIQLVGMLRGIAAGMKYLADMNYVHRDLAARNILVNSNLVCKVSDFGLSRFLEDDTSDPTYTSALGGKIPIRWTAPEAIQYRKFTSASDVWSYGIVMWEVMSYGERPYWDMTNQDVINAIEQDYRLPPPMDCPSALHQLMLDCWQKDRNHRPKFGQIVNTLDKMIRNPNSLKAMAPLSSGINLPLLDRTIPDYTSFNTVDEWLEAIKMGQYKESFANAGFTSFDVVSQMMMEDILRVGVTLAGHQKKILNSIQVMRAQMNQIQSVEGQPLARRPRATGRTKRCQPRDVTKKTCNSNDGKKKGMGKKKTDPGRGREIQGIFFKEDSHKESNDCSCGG
Chain of Jak2 (O60674 whole entry, looked up): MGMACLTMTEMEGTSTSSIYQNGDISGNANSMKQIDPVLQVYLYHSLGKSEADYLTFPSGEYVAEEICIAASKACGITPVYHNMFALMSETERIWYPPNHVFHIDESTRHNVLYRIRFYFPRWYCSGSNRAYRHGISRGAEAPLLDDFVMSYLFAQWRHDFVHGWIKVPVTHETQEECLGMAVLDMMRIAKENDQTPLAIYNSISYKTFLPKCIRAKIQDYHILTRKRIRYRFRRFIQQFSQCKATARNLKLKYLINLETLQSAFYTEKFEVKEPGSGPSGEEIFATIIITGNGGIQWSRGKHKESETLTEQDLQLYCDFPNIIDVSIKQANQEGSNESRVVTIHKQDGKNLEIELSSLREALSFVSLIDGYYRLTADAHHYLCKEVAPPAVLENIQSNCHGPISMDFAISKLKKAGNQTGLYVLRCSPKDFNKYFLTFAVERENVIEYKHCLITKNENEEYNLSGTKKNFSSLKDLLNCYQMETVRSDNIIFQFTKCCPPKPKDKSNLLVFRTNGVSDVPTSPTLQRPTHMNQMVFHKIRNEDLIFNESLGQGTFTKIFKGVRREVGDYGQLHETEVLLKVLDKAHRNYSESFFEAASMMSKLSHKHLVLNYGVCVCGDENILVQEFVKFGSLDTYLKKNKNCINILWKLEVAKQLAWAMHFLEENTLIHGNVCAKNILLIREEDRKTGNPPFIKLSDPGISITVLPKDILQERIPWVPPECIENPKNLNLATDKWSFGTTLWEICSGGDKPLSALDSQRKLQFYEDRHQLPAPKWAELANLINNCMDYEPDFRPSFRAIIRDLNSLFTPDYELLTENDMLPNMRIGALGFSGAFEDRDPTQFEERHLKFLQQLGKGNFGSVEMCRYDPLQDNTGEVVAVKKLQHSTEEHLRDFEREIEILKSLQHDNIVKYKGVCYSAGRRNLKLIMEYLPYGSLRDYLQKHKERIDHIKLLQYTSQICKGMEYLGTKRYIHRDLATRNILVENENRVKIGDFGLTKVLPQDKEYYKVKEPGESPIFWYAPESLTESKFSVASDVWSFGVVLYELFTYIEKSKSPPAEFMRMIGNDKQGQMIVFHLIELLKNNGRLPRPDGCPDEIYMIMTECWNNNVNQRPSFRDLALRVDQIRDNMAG
Chain of MERTK (Q12866 whole entry, looked up): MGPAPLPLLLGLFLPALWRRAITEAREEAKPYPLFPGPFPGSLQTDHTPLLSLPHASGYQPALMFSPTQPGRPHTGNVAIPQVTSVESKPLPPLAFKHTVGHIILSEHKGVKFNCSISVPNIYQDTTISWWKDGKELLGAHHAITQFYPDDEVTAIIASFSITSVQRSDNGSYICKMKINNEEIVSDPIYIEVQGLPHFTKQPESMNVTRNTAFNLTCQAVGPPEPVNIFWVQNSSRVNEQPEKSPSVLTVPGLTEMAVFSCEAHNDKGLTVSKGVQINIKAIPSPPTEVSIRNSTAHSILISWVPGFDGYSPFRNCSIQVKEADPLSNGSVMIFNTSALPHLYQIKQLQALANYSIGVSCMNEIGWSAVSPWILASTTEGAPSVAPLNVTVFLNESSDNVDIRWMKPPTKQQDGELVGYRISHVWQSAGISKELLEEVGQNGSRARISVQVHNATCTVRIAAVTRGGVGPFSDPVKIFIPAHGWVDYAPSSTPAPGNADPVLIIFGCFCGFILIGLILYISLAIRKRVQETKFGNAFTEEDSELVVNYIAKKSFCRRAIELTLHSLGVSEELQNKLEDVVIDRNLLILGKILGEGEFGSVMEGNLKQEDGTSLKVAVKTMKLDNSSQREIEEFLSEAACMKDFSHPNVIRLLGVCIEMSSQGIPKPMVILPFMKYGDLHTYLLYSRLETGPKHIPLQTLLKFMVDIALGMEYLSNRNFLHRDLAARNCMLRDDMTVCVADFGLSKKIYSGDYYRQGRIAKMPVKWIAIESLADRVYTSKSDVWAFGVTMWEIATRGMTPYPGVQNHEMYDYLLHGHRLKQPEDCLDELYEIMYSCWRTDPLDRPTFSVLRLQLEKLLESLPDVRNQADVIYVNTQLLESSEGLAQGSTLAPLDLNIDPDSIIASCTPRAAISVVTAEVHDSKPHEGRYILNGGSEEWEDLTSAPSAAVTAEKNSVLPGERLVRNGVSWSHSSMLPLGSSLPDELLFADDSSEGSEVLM
Chain of Fes (P07332 whole entry, looked up): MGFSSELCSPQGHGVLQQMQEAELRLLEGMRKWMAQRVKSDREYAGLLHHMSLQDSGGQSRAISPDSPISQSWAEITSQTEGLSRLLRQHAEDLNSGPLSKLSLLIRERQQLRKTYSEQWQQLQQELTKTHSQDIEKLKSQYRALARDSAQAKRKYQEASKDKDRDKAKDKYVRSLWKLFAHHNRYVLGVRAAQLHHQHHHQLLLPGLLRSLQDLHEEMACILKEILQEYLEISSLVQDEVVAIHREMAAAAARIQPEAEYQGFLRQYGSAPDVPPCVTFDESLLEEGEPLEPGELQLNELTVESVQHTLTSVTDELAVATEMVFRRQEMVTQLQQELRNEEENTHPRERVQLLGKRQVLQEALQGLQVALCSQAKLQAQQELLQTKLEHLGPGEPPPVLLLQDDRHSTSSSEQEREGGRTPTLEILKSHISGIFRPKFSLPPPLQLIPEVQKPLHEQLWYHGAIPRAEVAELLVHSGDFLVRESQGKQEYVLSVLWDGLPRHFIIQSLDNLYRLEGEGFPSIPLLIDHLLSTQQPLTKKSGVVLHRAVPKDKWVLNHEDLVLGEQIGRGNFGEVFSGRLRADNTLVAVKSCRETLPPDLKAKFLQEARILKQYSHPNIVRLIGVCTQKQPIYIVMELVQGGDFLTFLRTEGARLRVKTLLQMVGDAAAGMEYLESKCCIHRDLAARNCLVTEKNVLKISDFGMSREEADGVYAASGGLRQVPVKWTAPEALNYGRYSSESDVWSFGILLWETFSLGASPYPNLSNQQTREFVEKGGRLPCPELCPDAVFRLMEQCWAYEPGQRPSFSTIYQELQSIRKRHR
Chain of FGFR1 (P11362 whole entry, looked up): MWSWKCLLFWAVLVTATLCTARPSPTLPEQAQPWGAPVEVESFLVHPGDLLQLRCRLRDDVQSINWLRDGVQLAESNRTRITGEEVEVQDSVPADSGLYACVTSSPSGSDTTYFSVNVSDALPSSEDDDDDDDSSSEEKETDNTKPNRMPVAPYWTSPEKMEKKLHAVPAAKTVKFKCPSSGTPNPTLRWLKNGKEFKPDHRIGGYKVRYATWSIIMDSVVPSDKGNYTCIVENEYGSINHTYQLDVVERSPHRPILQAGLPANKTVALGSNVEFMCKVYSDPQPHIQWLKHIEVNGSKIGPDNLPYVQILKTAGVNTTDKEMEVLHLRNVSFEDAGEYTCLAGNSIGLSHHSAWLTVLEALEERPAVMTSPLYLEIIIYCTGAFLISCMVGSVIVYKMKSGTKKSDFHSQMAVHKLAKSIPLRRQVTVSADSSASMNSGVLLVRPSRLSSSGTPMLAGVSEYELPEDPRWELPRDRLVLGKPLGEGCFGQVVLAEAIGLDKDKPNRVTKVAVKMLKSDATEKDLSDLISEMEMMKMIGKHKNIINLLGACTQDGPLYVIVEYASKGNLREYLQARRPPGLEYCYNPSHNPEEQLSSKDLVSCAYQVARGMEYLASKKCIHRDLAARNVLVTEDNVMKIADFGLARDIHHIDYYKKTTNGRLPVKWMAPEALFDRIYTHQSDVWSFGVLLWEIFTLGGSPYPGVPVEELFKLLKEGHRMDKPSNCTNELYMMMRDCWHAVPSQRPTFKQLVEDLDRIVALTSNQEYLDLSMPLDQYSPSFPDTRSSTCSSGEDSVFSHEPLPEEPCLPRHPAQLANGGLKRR

| Sequence | SH2 binding enrichment (Grb2 SH2) | SH2 binding enrichment (SHP2-C SH2) | SH2 binding enrichment (c-Src SH2) | phosphorylation enrichment (AncSZ) | phosphorylation enrichment (EPHB1) | phosphorylation enrichment (EPHB2) | phosphorylation enrichment (FGFR1) | phosphorylation enrichment (FGFR3) | phosphorylation enrichment (Fer (mouse)) | phosphorylation enrichment (Fes) | phosphorylation enrichment (Fyn) | phosphorylation enrichment (Hck) | phosphorylation enrichment (Jak2) | phosphorylation enrichment (MERTK) | phosphorylation enrichment (c-Abl (mouse)) | phosphorylation enrichment (c-Src) |
| --- | --- | --- | --- | --- | --- | --- | --- | --- | --- | --- | --- | --- | --- | --- | --- | --- |
| SEQNNYSRVAN [CWC22_Y797_R794Q] | 0.784 | 3.97 | 1.66 | 0.705 | 1.14 | 0.878 | 0.43 | 0.437 | 0.497 | 0.534 | 0.458 | 0.458 | 0.535 | 0.4 | 0.447 | 0.35 |
| QGIPWYHSQSP [FOXF1_Y331_R330W] | 1.43 | 1.14 | 1.15 | 0.645 | 0.435 | 0.503 | 0.571 | 0.441 | 0.533 | 0.642 | 0.46 | 0.547 | 0.977 | 0.517 | 0.633 | 0.601 |
| VTQEPYELYCE [CBL_Y368_Q367P] | 1.01 | 0.861 | 0.695 | 1.65 | 0.763 | 0.621 | 0.554 | 0.794 | 0.86 | 1.13 | 0.761 | 0.717 | 0.999 | 0.461 | 0.74 | 1.24 |
| YLGRDYLETLM [DUS3L_Y610] | 0.748 | 0.803 | 0.563 | 0.937 | 0.617 | 0.544 | 2.74 | 2.29 | 0.637 | 1.03 | 0.514 | 0.829 | 1.06 | 0.524 | 0.898 | 0.538 |
| IFGVSYDEYRY [CFTR_Y512] | 0.776 | 0.896 | 1.36 | 0.932 | 0.557 | 0.504 | 0.688 | 0.664 | 0.496 | 1.05 | 0.644 | 0.617 | 0.882 | 0.434 | 0.638 | 1.27 |
| SIKHKYVTALY [KCNH2_Y611_D609H] | 0.761 | 0.63 | 0.484 | 0.537 | 0.399 | 0.4 | 0.45 | 0.594 | 0.398 | 0.582 | 0.43 | 0.524 | 0.528 | 0.407 | 0.444 | 0.398 |
| SLKEFYGEDAK [ALDH3A1_Y272] | 0.916 | 0.599 | 0.511 | 0.929 | 0.434 | 0.472 | 0.472 | 0.692 | 0.588 | 1.08 | 0.51 | 0.501 | 0.903 | 0.388 | 0.561 | 0.44 |
| KVWGIYDCQQP [CYP3A7_Y75] | 0.78 | 0.761 | 0.472 | 1.56 | 6.6 | 2.3 | 0.687 | 0.772 | 2.48 | 1.61 | 7.28 | 6.28 | 1.14 | 4.76 | 0.998 | 4.49 |

Continued, in another order:

| SH2 binding enrichment (Grb2 SH2) | SH2 binding enrichment (SHP2-C SH2) | SH2 binding enrichment (c-Src SH2) | Sequence | phosphorylation enrichment (AncSZ) | phosphorylation enrichment (EPHB1) | phosphorylation enrichment (EPHB2) | phosphorylation enrichment (FGFR1) | phosphorylation enrichment (FGFR3) | phosphorylation enrichment (Fer (mouse)) | phosphorylation enrichment (Fes) | phosphorylation enrichment (Fyn) | phosphorylation enrichment (Hck) | phosphorylation enrichment (Jak2) | phosphorylation enrichment (MERTK) | phosphorylation enrichment (c-Abl (mouse)) | phosphorylation enrichment (c-Src) |
| --- | --- | --- | --- | --- | --- | --- | --- | --- | --- | --- | --- | --- | --- | --- | --- | --- |
| 0.957 | 0.737 | 1.75 | DPHQQYYIAMD [TBX15_Y159] | 1.05 | 0.735 | 0.593 | 6.27 | 4.36 | 0.52 | 0.881 | 0.625 | 0.669 | 0.996 | 2.7 | 0.59 | 1.55 |
| 0.961 | 0.884 | 0.801 | LEITWYPFDVE [RIPOR2_Y316] | 1.49 | 1.21 | 1.05 | 0.679 | 1.55 | 0.827 | 2.12 | 0.751 | 0.691 | 2.3 | 0.461 | 1.25 | 0.704 |
| 1.24 | 0.992 | 0.653 | TTSQPYRCLCS [USH2A_Y534] | 0.951 | 0.473 | 0.587 | 0.552 | 0.707 | 0.509 | 0.941 | 0.557 | 0.523 | 0.931 | 0.781 | 1.07 | 0.562 |
| 0.93 | 0.851 | 0.652 | DMLFQYLKQIE [RPAP3_Y569_YF] | 1.48 | 0.684 | 0.588 | 0.531 | 0.59 | 0.462 | 1.22 | 0.421 | 0.571 | 0.976 | 0.523 | 0.577 | 0.468 |
| 0.94 | 1.22 | 0.331 | VSGIPYGQPKQ [NEU1_Y251] | 0.494 | 0.349 | 0.323 | 0.415 | 0.437 | 0.44 | 0.57 | 0.339 | 0.419 | 0.522 | 0.336 | 0.422 | 0.434 |
| 0.883 | 0.774 | 0.588 | SETSRYLSELF [KCNJ3_Y67_D70E] | 1.07 | 0.467 | 0.498 | 0.509 | 0.537 | 0.376 | 0.882 | 0.397 | 0.464 | 0.783 | 0.382 | 0.535 | 0.346 |
| 0.923 | 0.568 | 0.484 | RRIHSNRGHLW [VHL_Y112_Y112N] | 0.702 | 0.496 | 0.48 | 0.357 | 0.408 | 0.485 | 0.732 | 0.574 | 0.709 | 0.653 | 0.677 | 0.825 | 0.625 |
| 0.663 | 0.706 | 0.422 | PLDGESFTLQI [TP53_Y327_Y327S] | 1.64 | 0.731 | 0.93 | 0.634 | 1.05 | 0.552 | 1.67 | 0.569 | 0.619 | 1.26 | 0.549 | 1.23 | 0.616 |
